Source: paper PMC6426937
Blank lines part the entries; values can stand above or below the binder they belong to.

Target: Hsp82p (Saccharomyces cerevisiae Hsp90), N terminal 6xHis tag (Saccharomyces cerevisiae) (UniProt P02829)
Sequence (P02829 whole entry): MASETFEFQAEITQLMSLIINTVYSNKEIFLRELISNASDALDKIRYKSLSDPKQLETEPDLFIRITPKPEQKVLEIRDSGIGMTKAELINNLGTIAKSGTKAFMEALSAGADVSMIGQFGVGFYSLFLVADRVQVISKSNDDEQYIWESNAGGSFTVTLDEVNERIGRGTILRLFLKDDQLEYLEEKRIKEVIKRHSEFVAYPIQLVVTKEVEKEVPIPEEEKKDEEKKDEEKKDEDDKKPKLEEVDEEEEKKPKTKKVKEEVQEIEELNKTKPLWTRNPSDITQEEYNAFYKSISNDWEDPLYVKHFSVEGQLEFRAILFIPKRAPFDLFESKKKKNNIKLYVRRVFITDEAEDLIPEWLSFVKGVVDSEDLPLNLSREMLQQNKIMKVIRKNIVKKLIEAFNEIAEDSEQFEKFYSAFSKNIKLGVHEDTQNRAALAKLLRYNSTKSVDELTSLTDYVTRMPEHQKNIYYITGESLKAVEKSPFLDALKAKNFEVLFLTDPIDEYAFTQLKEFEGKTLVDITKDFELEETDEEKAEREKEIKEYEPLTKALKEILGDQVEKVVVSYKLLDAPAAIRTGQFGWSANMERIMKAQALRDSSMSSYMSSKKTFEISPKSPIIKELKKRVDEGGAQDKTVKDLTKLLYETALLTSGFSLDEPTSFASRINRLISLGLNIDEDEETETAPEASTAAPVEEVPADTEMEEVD

- apparent affinity (Kapp) from stimulation of the Hsp82p ATPase activity by increasing co-chaperone (1 µM Hsp82p, 2 mM ATP, ATP regenerating system): 1.24 µM
B1: Aha1p, C terminal 6xHis tag (natural protein)
chain: MVVNNPNNWHWVDKNCIGWAKEYFKQKLVGVEAGSVKDKKYAKIKSVSSIEGDCEVNQRKGKVISLFDLKITVLIEGHVDSKDGSALPFEGSINVPEVAFDSEASSYQFDISIFKETSELSEAKPLIRSELLPKLRQIFQQFGKDLLATHGNDIQVPESQVKSNYTRGNQKSSFTEIKDSASKPKKNALPSSTSTSAPVSSTNKVPQNGSGNSTSIYLEPTFNVPSSELYETFLDKQRILAWTRSAQFFNSGPKLETKEKFELFGGNVISELVSCEKDKKLVFHWKLKDWSAPFNSTIEMTFHESQEFHETKLQVKWTGIPVGEEDRVRANFEEYYVRSIKLTFGFGAVL

- apparent affinity (Kapp) from stimulation of the Hsp82p ATPase activity by increasing co-chaperone (1 µM Hsp82p, 2 mM ATP, ATP regenerating system): 0.44 µM
B2: Aha1p^Δ11, C terminal 6xHis tag (domain or fragment)
chain: VDKNCIGWAKEYFKQKLVGVEAGSVKDKKYAKIKSVSSIEGDCEVNQRKGKVISLFDLKITVLIEGHVDSKDGSALPFEGSINVPEVAFDSEASSYQFDISIFKETSELSEAKPLIRSELLPKLRQIFQQFGKDLLATHGNDIQVPESQVKSNYTRGNQKSSFTEIKDSASKPKKNALPSSTSTSAPVSSTNKVPQNGSGNSTSIYLEPTFNVPSSELYETFLDKQRILAWTRSAQFFNSGPKLETKEKFELFGGNVISELVSCEKDKKLVFHWKLKDWSAPFNSTIEMTFHESQEFHETKLQVKWTGIPVGEEDRVRANFEEYYVRSIKLTFGFGAVL
